Laboratory results from IntAct's records for PubMed 16415179.

B1: Transcriptional repressor p66-alpha (Homo sapiens), Q86YP4 (parent)
chain: MTEEACRTRSQKRALERDPTEDDVESKKIKMERGLLASDLNTDGDMRVTPEPGAGPTQGLLRATEATAMAMGRGEGLVGDGPVDMRTSHSDMKSERRPPSPDVIVLSDNEQPSSPRVNGLTTVALKETSTEALMKSSPEERERMIKQLKEELRLEEAKLVLLKKLRQSQIQKEATAQKPTGSVGSTVTTPPPLVRGTQNIPAGKPSLQTSSARMPGSVIPPPLVRGGQQASSKLGPQASSQVVMPPLVRGAQQIHSIRQHSSTGPPPLLLAPRASVPSVQIQGQRIIQQGLIRVANVPNTSLLVNIPQPTPASLKGTTATSAQANSTPTSVASVVTSAESPASRQAAAKLALRKQLEKTLLEIPPPKPPAPEMNFLPSAANNEFIYLVGLEEVVQNLLETQGRMSAATVLSREPYMCAQCKTDFTCRWREEKSGAIMCENCMTTNQKKALKVEHTSRLKAAFVKALQQEQEIEQRLLQQGTAPAQAKAEPTAAPHPVLKQVIKPRRKLAFRSGEARDWSNGAVLQASSQLSRGSATTPRGVLHTFSPSPKLQNSASATALVSRTGRHSERTVSAGKGSATSNWKKTPLSTGGTLAFVSPSLAVHKSSSAVDRQREYLLDMIPPRSIPQSATWK

Variants of: B1
Settings: with mbd2_human MBD2, Q9UBB5
Sequence of mbd2_human MBD2, Q9UBB5 (Q9UBB5 whole entry): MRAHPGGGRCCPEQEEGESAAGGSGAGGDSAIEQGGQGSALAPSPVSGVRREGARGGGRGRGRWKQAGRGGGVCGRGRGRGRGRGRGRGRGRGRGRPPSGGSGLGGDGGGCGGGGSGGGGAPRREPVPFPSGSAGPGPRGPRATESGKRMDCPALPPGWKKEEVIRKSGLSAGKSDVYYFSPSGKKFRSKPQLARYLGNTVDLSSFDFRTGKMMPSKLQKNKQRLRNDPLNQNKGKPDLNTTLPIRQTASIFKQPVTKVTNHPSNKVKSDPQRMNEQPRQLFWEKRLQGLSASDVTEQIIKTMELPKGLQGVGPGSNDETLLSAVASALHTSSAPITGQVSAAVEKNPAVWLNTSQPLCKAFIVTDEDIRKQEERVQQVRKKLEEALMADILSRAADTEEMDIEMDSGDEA

| Variant | effect of a mutation on the interaction |
| --- | --- |
| K149R | decreasing interaction |
